test: soluble on expression in E. coli; label from the status in PepcDB or PDB records

Soluble on expression in E. coli, not soluble:
MGSDKIHHHHHHMVIHKETMRSANEKSVLQRIFTEGPISKSQVARDVSLNKVTVSQIINKFISSRLVVEAGSGDSTQQGGRKPELVQINSKYGYVVCIDLGYQELSVLSMSINGQKLDSRHTIFGNDDINIAIEKIYEILVEFQEMHKERLLGLLVSIHGIVHKNQVIYSPFWNMKQIDLADTLSKKFDIPVILENEANLTATFERDYSVNEIQNAVSISMHKGIGAGIIIDGELYRGRKGEAGEIGQTVAFESENQSLEKSNKIEDVCSPQVILARIKNAKKLEYINWQLVRQMFDDKDQETLEILKEFENNVAKIINNVIVSFDPDVLVVNAYIFKEFPEILERISNGFAHVSVRNTPIVLSENVKNASLYGGCAQMIRTILGVSKLKLQYKK
MGSDKIHHHHHHMVIKEFNSLNTELVREIEKLTETCGKFDGIQEEVNLDDGFNFNKSMKWLFVLYEKDKVVSVVSIFAPKEEEGEISACTLPEYRRKGYFKELLSKAKNELLKYNVPKILFVCPKGSKQGEAVIKNSDAIYKFAEYTMNFNKNKFKAKGKYITKLAEANYNDLNKITKVASDVYSESYEQANSMMKNALESSDRLQFKLKLKEDYIGVVAAYFYHDKVSIFGVGILPEYRGRGFGREMMSMLLEYLIERDYDDIALEVDSNNKRAFELYKSIGFQIEREIDYYEEKINNTFYSY
MGSDKIHHHHHHMVKCIEEYVQVDDFKMYSKVFQGKKLQPVIIMEAGYGDYSKTWDHIAEELTEFGTVLTYDRAGLGKSGNSSKRRISSEMIKDLRSCLEKLQLKPPYIFVGHSFGGINARLFATFYSEDMLGIVLVDSTPENYKKDFLLIMSPEFQEAYYKQFVHESSYKEFMFSLGEADKHCQSMRNIPLVVLAAGKKAYYSQEAQMKWLQLQEELLRLSNNHKFIIAEQSGHYIQKDEPHYIIDAVKWIIEVGEG
MGSDKIHHHHHHMVKHHCRMVFKFKLGFFTDLHGSEYSFKRSLNIAKSKRVDFLIISGGLIAKEILFVEDIGGRYFLNGKKVNLNNLNEDALRSGKYIVVDKKEVIEDIKSDKSKLEKIVIEKASEQMSRWVKIAEEIFRLEKVFWSPAHGDIPQLDSILKNYGSNLINENVINLEEIQIVSLGFGSPIGNSYREIPDSELYIKGKSLLKDADKERLIMNFHMPPLNTKLDNAKVGLRKSHVGSKAVLDLITEFQPIISLHGHVHESTSMDKVGETIAINPGSLYQLGDPSIVTFEVHKELKSFGSVNVSKYVIKNIEFVSTNPLDVI
MGSDKIHHHHHHMVKNNNIAVKVEHVSKSFKLPTESSQSLRTTLVNLFKGIKGYVEYNVLQDISFEVEKGDFFGIVGRNGSGKSTLLKILSQIYVPERGTVAVDGKLVSFIELGVGFNPELTGKENVYLNGAMLGFTAEEIDAMYDDIVEFAELSEFMNQKLKNYSSGMQVRLAFSVAIKAQGDILILDEVLAVGDEAFQRKCNDYFLERKKSGKTTILVTHDMGAVKKYCNKALLIEKGYVKALGEPDDVANQYSFDNVLASISEVTENEEPLHQSDIVKDLQINLVSKNQIEPDESIEIEFRYTVLEDIETHVAFTFLDLERHFDVYNDNSMDLKTFGKGEKFFRVKCKLPSINQAKLKMAVSVRNSNKQPLLFAKTSDTPAIFISRKFSTDNIAEEDAATGFIQRNSQWELLD
MGSDKIHHHHHHMVLKVFKDHFGRGYEVYEKSYREKDSLSFFLTKEEEGKILVVAGEKAPEGLSFFKKQRAEGVSFFFCERNHENLEVLRKYFPDLKPVRAGLRASFGTGDRLGITTPAHVRALKDSGLFPIFAQQSVRENERTGRTWRDVLDDATWGVFQEGYSEGFGADADHVKRPEDLVSAAREGFTMFTIDPSDHVRNLSKLTEKERNEKFEEILRKERIDRIYLGKKYSVLGEKIEFDEKNLRDAALVYYDAIAHVDMMYQILKDETPDFDFEVSVDETETPTSPLFHIFVVEELRRRGVEFTNLALRFIGEWEKGIDYKGDLAQFEREIKMHAEIARMFEGYKISLHSGSDKFSVYPAFASATGGLFHVKTAGTSYLEAVKVISMVNPELFREIYRCTLDHFEEDRKSYHISADLSKVPEVEKVKDEDLPGLFEDINVRQLIHVTYGSVLKDASLKERLFKTLEQNEELFYETVAKHIKRHVDLLEG
MGSDKIHHHHHHMVLNINSFYKNCRGEFMRAVFIYHKNNQRMEKFYKNLLNEPDFCRICDDCYNCRGNWTFKNNVKNIVIEEVYEEFVDNPYDYLPELPEGDICIAQLHEDLLYELPLLLKEKGYKALIVPSETPHDLSLALRRDLKRVCSNYNIEFENPKPFCSLEKKEGNEYINKFIDYFKIGKPELEIEVENGLIKDVKVKISAPCGETYYIAKRLKGKAIDDLKEEIANAHHNYPCLASMEMDKELGDTILHKAGYIAFEVVEKALKK
MGSDKIHHHHHHMVLSLSSHNVIQYLQEAGLCSSEDDASDKSELPGSSKNNSDLLVTLADNRKLLVKQEHNVKNNDVAPRELFQEWLFHQLLQQFPVLGNISAIAPLVVHFDEENSILVRNYLSEYLKLATFYHNNEIFPQEIATAIGTTLAGLHRATYNRREYRDFMATAPQGEFRYGFYNPAQGVESIGPEIFGTVPTEALKFYLLYQQSESLESAIADLAYDWNPCCLTHNDLKLNNILVHSRWKKLDNCLVRLINWEACSWGDPAFDLGTLLASYLRIWLNSLVVDPTIELQESLHLALTPLESLQPSIIALIRAYLNAFPMILEYRSDFIVRVIQFAGLALIHQIQDMITCRKSFNNTDICMLQVAKSLLTMPQQGVLTIFGISESEILNPVGKVHKLPQPVKEPQLLRLYYEKTRLRGC
MGSDKIHHHHHHMVLVVDYGSQYSRLITRRIRENEVYSEVVFPDDKVDLSKVDAVILSGGPRSVYEEDAPKLPEWFQEYKGPVLAICYGMQLIVKELGGEVRRGRGEYGRTLVELSRDPIFEGIPEKVHVWMSHGDEVVRLPEGFHPIAVSETGVIAAATDGKRFWLLQFHPEVHHTEYGDRMISNFLFNVCKLEKNWKIGDLVEEKIRHIKETIGNKKAILALSGGVDSSVAAVLVHRAIGKNLVCVFVDHGLLRKNEREEVERVFKEHFDMNLVVVDARKRFLEKLRGVTDPEKKRKIIGEEFIRVFEEEAKKHDVEFLVQGTIYSDVIESAASGKTTAKIKSHHNVGGLPEKMNLKLVEPLRDLFKDEVRKVGKYLGIPDRIINRHPFPGPGLAVRVLGEVTEEKLEILREADYIFIETLRKHDYYDKVWQAFAVLLPIKSVGVKGDARAYEYVVALRAVNSVEGMTADWSRIPHDILDEAARRITREVKGVGRVVYDITSKPPATIEWE
MGSDKIHHHHHHMVNEKRLLEEFLELVQIDSETKHEAEICKVLKRKFSDLGVDVKEDDTMDITGHGAGNLICTLKGTKQTDTIYFTSHMDTVVPGNGVKPVVENGYVKTDGTTILGADDKAGLAAMFEAIKVLKEENIEHGTIEFIITVGEESGLIGAKALDRPMITASYGYALDSDGKVGNIIVAAPTQAKVRAAIFGKTAHAGVEPEKGISAITIASKAISKMPLGRIDEETTANIGRFEGGTQTNIVCDEVHILAEARSLVPEKMEAQVQKMKAAFEEAAADMGGRAEVEIEVMYPGFKYQDGDQVVEIAKKAAAKIGRPSELQTSGGGSDANVIAGHGIPTVNLAVGYEQIHTKNEKMPIEELVKTAEMVVAIIEEAAK
MGSDKIHHHHHHMVNFLNEGGYVLDFSTADFDAFTYKSIGVPLCETYRLSKGKSLIAYINDTKYEDKIKLLSDLIRYYELSSMKEHDEENRKSRAVAYKKCRSILDKAGGTMVMTATAETLKEAFDSDYISAQIDLMLNLKDGNPTEAIGKAKELIESCCKTILEFEGCTVDKDWEVPRLVDETFKHFHLMPKNISDDVKGAKSIKAILGNLKAIAQGVAELRNLYGSGHGKSSSYKGLESRHASLAIGSSTTLVRFLWDSYERHHNNEVN
MGSDKIHHHHHHMVNIEIDEGSGFCFGVTTAIRKAEEELAKGNTLYCLGDIVHNGQECERLKKMGLITINHEEFAQLHDAKVLLRAHGEPPETYAIARTNNIEIIDATCPVVLRLQKRIKQEYDNVPASQDTQIVIYGKNGHAEVLGLVGQTHGKAIVIETPAEAAHLDFTKDIRLYSQTTKSLEEFWQIIEYIKEHISPDATFEYYDTICRQVANRMPNIRKFAAAHDLIFFVCGRKSSNGKILYQECKKINPNSYLIDQPEEIDRNLLEDVRSIGICGATSTPKWLMEECKKAILNEK
MGSDKIHHHHHHMVRLWLMYKNKEEQANMQVEKDVIYDSAYNLAADLYVPDEANGGAIVYAHGGGWFRGDKENESDLGKYFADAGYLFTIPNFRLAPKYLYPTAQNDFDHFINWLLASPYDFDRERLGLLGASSGGTMVLQNSLASGYPLVAWSPVVDFANWVQKNQMVKASVDGKKELGLTEIHEIHDSFYKYFVQTYLGGLDPRLLTAVNPTNHLTDQLGPALLFNSADELMPLPSALHFLQQAAMFGRDIGLHVVPGTGHARDYTSFALPETKRFFDHHLFTTVEDKTLNKATD
MGSDKIHHHHHHMVSMIKTAQGYSSELTRDQSELTQFWSQVQQESLAIEPGITLAYGFIRHEDNRRAIVISNGRVESYLKYQELIYDCYQQGFSVYALDHRGQGLSSRLTTNPHQGHVEHFSDYVDDFKVFIERVVKPERHKELFLVGHSMGGAIATHYIHQDPTTFNAAVLSAPMYGIILPLPTVVIKQLATKMINTQPVIGSHLVATNYIIGGRDYQAISFKLNQLTHSQVRYQHYRDLYQQQPQCQLGSPTNQWLAEAIDAAKASIDMARGSPIPLLILQAGKDKIVCNQAQNKALAGLCQRIIIEGAFHEVFIETDKLRDKALKALFDFINQHSEII
MGSDKIHHHHHHMVTLVRQVEIQPYQPKYAQAVSELFHLCVHNIEHERYSQAQLNAWSKAPRSAKHWHLRLSRSQAWIILVTSTESLSKICVGFINVETDYYHRGYIDSFYIHPDWQRQGVGGRVYCELEQWARGQGYASLSVDASYLSKGLFTQLGFVQIQRNYQQKLGQVLTSFYMTKKL
MGSDKIHHHHHHMVVNMFEDIDTFEEAFNKLLREVLEFDLQNPFKDAKKVLCIEPHPDDCVIGMGGTIKKLSDMGVEVIYVCMTDGYMGTTDESLSGHELAAIRRKEEEESARLLGVKKIYWLNYRDTELPYSREVRKDLTKILRKEQPDGVFAPDPWLPYESHPDHRRTGFLAIESVAFSQLPNFSNTDLDIGLNPYNSGSFIALYYTHKPNYIVDITDLMELKLKAIRVHRSQFPDDIWEKWEPFLRTIAMFYGEKIGVRYGEGFRIMPGLFYHITPFTDLI
MGSDKIHHHHHHMVWRDAEGQVHALEDRCPHRGARLSLGWNLGDRVACWYHGVEVRADGVVADVPAVHECPMTGTKCLKSYPVIEQHGAIFIWFGIDANEQPAPLEFPEQLASEEWSSFLCQADWKVNHQYAIDNVMDPMHGTYLHCTSHSMAEGERTAEMKHRTTENGFVFEKEGQTGVNFDWVEYGSTGASWLRLSIPYRKQFGPGGEFWIVGYATPIDANNTRVFFWRCRKVSGWQRNVWRFLYRNHLEQLHWDVLEQDRIILENLAPNARAREFLYQHDVGLARLRRLMKKEAEKQLKKIAALNASNRIEMQEEAHG
MGSDKIHHHHHHMVWRDLLEVIYKLDPKPGLGLEIAKHVQPKHLGIIAYLALSCDNLGEALIRYHDFHRLIYDGSPLVVELQGRYGSIRWEATELHPTQLTDEIAIALVIQFLRLFMSHEDVQLHEVRFLNAAPKNIRVYEQYFQCPVRFSQPRTELLIPITEIHKPLSSADHTLQQLLVQQAQALLEQLPNSTQLDQRLQHSILTGLQKNQYQIEYIAAQLGLSVRQLQRHLQQQSTTFQERVQQVRFMLATEYLKDPHLSLQEIALLLCYSEQSAFQRAFKHWTKQTPQQWRDQFLDKE

Source: the DeepSol protein solubility set
